Our source for the binding values is PMC9657007.

In one data set the target is T1, Tr1 (Ehrlichia chaffeensis) (UniProt Q2GF81).
T1 sequence: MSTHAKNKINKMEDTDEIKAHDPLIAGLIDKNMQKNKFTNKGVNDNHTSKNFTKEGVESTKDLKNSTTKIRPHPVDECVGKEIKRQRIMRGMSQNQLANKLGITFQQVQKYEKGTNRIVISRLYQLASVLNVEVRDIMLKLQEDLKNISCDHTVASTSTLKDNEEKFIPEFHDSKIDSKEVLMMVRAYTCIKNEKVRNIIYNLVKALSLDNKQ
Kind of data set: Southwestern blot. The note with it: EMSA: 10 mM Tris-HCl pH 7.5, 50 mM KCl, 5 mM MgCl2, 2.5% glycerol, 1 mM DTT, 50 ug/mL poly dI-dC, 20 fmol probe, room temperature 25 min (20 min in Fig …).
For the sequence “TACCCGGACAAACTGACTTTCATGTTTAATATAAATTATTGATCCAATCAAGCTAAAAAGTAAATAAATTTTATCTTATATTTCATAAAGCATAATATGTTATTTCTGTATATTATATAATTAGTATACTATTCCAGCAAACTAGATAGAATATATCCATTAAATAACTATTGCATTCACTTTATGCATGATTTATCTTACATAGGTTGCTTTGT (double strand) [tr1 promoter (SWB probe)]”, the binding result is “binds”.

For the next data set, the target named is T2, EcxR (Ehrlichia chaffeensis) (UniProt Q2GG40).
T2 sequence: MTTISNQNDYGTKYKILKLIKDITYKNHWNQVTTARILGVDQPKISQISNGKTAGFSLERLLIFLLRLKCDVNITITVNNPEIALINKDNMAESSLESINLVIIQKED
The data set is described as follows: Southwestern blot. The note with it: EMSA: 10 mM Tris-HCl pH 7.5, 50 mM KCl, 5 mM MgCl2, 2.5% glycerol, 1 mM DTT, 50 ug/mL poly dI-dC, 20 fmol probe, room temperature 25 min (20 min in Fig …).
As for “GGTGTTTTTATAATTTTATTACTAAGATATTTTTTTATTAATAACTATATGCCAATACAGATAGTATAAGTATCTTATAATAAATCCATCATCTTAATGTAAGTAATACATATAACTAATAACAATAATATATTAACATTTTTATAGAATATCTATCATAATCAAACATTAACTAAATTCTCTACTAGCAGTAAATTGAATATCTACAATTTACACGTTCTACTGTTTTGCTTGCCAACTTAATTGATACTGCTTATCATCTGAATATCAAAAGATGATAGGGTACTGT (double strand) [clpB promoter (SWB probe)]”, the binding entry was “binds”.
Still for that read-out and setting: with “CTACCTCTATAAAAAAATAAATTATCAGTAGCATCAGATACTACTAGCTAAGATCATATATAATATCAAGAAATCTAATTTCAAGTATCAATCAATAAATTTTATAATACATATTGCACAAATGTTTACAAGGTTAGAACTTTATAGGACCCAGTAGAAATATTATATTACTCTGTAACAGTTTACATAACACATAAAAAATCAATTGACTTGATACTGAAAACATCGTTGATATTTAAGTAGTTAATTTTTTAAGTAAGTTAGCATGCGCTG (double strand) [groES/L promoter (SWB probe)]” the entry was “binds”.
As to “TACCCGGACAAACTGACTTTCATGTTTAATATAAATTATTGATCCAATCAAGCTAAAAAGTAAATAAATTTTATCTTATATTTCATAAAGCATAATATGTTATTTCTGTATATTATATAATTAGTATACTATTCCAGCAAACTAGATAGAATATATCCATTAAATAACTATTGCATTCACTTTATGCATGATTTATCTTACATAGGTTGCTTTGT (double strand) [tr1 promoter (SWB probe)]”, the binding result is listed as “binds”.
Consider “GTACCTAAATCTATACCTATAACAGCCATAAATAGCCCCCTTACATAAAAATCAAAACTATAATCACAGATATAATAACCAAATCATAAGATTACAACCCCATTTAACACAAGTTCATAAATTTATGGCATGCGCTG (double strand) [dnaK promoter (SWB probe)]”, for which the binding result was “binds”.

For the next data set, the target named is T2, EcxR (Ehrlichia chaffeensis). Kind of data set: EMSA. The settings on record: EMSA: 10 mM Tris-HCl pH 7.5, 50 mM KCl, 5 mM MgCl2, 2.5% glycerol, 1 mM DTT, 50 ug/mL poly dI-dC, 20 fmol probe, room temperature 25 min (20 min in Fig …).
With “CAGGAGTTACTCCATGTGCAAGTAGTATCTTGTAAACACTAGTGTCTTTAACAACTGCAAGAGCTTGTAATAATCTCTCCACAGTTACATAAGTATCCTGATTCCTTTTTGCTAAACTAATAGCTTCTTCTAAAACCTGAGCCATTTCTTTTGATAAATGTATATGACCACTACCACTTCCACTTACAACAGGTAATTTACTTAAGGAGAGTTTTATATCACTGTATATCTTATCAATATCACATCCACATGAAGTCAGCAACA (double strand) [clpB-ORF]”, the binding result was “no binding”.
On the same count and under the same terms, next, “GGTTTAGCCATTTTAAATGTGTTTAAAAAGAAATCTTTTTGACATTATTGTAAACTTATGATTTTTATTAAGGGGAAGAGTGAACAAAATACTGTTATTAGAAGTTTACAGAAAGTTAACTG (double strand) [p28-Omp14-P2]”: “no binding”.
As for “ATATAACCTAATAGTGACAAATAAATTAACAATAGTAGAAGTGTCATATAAAAGCAAGTCAGAATATAAATTTTTGTATAAAATATCGGTAACTTTTGTAAGGAAAATTTAATATATTACGTCAG (double strand) [p28-Omp19-P3]”, the binding result is given as “binds”.
On to “GTTTTCTGCTTTATTAGAATGATTCCCAAATAAATTTTAATTAATTACTGTTCCGTATTTATTAATATATGTTATAATGTAATTAAATAAGGATACTAGATTTGCTCATAATGCATGTAC (double strand) [p28-Omp14-P3]”, for which the binding result was “binds”.
Same read-out and setting: next, “CTTTTGTAAGGAAAATTTAATATATTACGTCAGGTAAGTAATAGCAAAAAAACTGGTTAAGTATAGTATCATGTGTAAAGGTGAGAAAAACAGCAC (double strand) [p28-Omp19-P2]”: “binds”.
For “GGATAAGTACTTTAGCAAGTGGTAAAAGCAAGTCTACTCATATTTTTATTAATTAAGTAGTAAAGTTAACTATAGATTTTATTAAAATTTTTATTCTAATCACTTTAAATATCAATTACTTTTGTTGTAAATTTGAAAGAAATTTTATATTCTAGAC (double strand) [p28-Omp14-P5]”, the binding entry is given as “no binding”.
On to “GTTCCGTATTTATTAATATATGTTATAATGTAATTAAATAAGGATACTAGATTTGCTCATAATGCATGTACTGAATTTGTGATTTGAAATAACAAGACTTAAATGTCGAATTTAGCTTCTGTCCTAGTGGATAAGTACTTTAGCAAGTGGTAAAAGCAAGTCTACTCATATTTTTATTAATTAAGTAGTAAAGTTAACTATAG (double strand) [p28-Omp14-P4]”, for which the binding result is on record as “binds”.
With “GTACCTAAATCTATACCTATAACAGCCATAAATAGCCCCCTTACATAAAAATCAAAACTATAATCACAGATATAATAACCAAATCATAAGATTACAACCCCATTTAACACAAGTTCATAAATTTATGAA (double strand) [dnaK promoter EMSA probe]”, the binding entry is “binds”.
Still for that read-out and setting: next, “GATTAATAGATTCTAGGGAACTCTCTGCCATATTGTCTTTGTTAATTAATGCAATTTCTGGGTTATTGACAGTGATTGTTATATTCACATCACATTTTAGACGTAACAAAAATATAAGTAAACGTTCTAATGAAAATCCTGCTGTTTTACCATTACTAATCTGAGATATTTTTGGTTGGTCTACGCCCAGTATCCTTGCTGTGGTTACTTGGTTCCAGTGATTCTTA (double strand) [ecxR-ORF]”: “no binding”; “TTGCTCAACCATAAAATAATGGGAAATTACCTTTTCTAGGAAGTTTCTCATTATTTAACAGTTAACTTTCTGTAAACTTCTAATAACAGTATTTTGTTCACTCTTCCCCTTAATAAAAATCATAAGTTTACAATAATGTCAAAAAGATTTCTTTTTAAACACATTTAAAATGGCTAAACC (double strand) [p28-Omp14-P1]”: “binds”.
Turning to “GACTCTAGACTTTTAATTTTATTATTGCCACATGTTAAAAATAATCTAAACTTGTTTTTATTATTGCTGCAGGTAAATAAAAATAGTGGCAAAAGAATGTAGCAATAAGAGGGGGGGGGGGGGGACTAGTTTATAAGTGC (double strand) [p28-Omp19-P1]”, the binding result is recorded as “no binding”.
Turning to “TAACTTACTTAAAAAATTAACTACTTAAATATCAACGATGTTTTCAGTATCAAGTCAATTGATTTTTTATGTGTTATGTAAACTGTTACAGAGTAATATAATATTTCTACTGGGTCCTATAAAGTTCTAACCTTGTAAACATTTGTGCAATATGTATTATAAAATTTATTGATTGATACTTGAAATTAGATTTCTTGATATTATATATGATCTTAGCTAGTAGTATCTGATGCTACTGATAATTTATTTTTTTATAGAGGTAG (double strand) [groES/L promoter EMSA probe]”, the binding entry is recorded as “binds”.
Still for that read-out and setting: next, “GGTGTTTTTATAATTTTATTACTAAGATATTTTTTTATTAATAACTATATGCCAATACAGATAGTATAAGTATCTTATAATAAATCCATCATCTTAATGTAAGTAATACATATAACTAATAACAATAATATATTAACATTTTTATAGAATATCTATCATAATCAAACATTAACTAAATTCTCTACTAGCAGTAAATTGAATATCTACAATTTACACGTTCTACTGTTTTGCTTGCCAACTTAATTGATACTGCTTATCATCTGAATATCAAAAGATGATAGGGTACTGT (double strand) [clpB promoter EMSA probe]”: “binds”.
